Results published in patent US20230406951A1 (Pfizer, published 2023).
Where a chain is given by its changes, count along the chain named.

T1: human TNFR2 (human, UniProt P20333 23-461)
T1 construct: expressed on the surface of CHO cells; also called HuTNFR2; TNFRSF1B
T1 sequence: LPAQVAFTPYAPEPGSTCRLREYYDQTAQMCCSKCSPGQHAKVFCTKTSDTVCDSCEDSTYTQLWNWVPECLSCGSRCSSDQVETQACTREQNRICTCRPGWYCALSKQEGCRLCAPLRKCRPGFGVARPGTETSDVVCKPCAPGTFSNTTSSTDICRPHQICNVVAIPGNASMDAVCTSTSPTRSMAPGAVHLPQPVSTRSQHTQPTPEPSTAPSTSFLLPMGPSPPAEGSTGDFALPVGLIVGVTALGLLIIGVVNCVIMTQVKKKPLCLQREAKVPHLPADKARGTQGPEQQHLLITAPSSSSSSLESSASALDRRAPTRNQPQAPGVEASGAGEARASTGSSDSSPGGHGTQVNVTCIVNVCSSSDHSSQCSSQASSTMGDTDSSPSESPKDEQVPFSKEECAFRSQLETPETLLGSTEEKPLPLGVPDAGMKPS

B1: IgG 1945 (antibody, name in Kabat numbering, V domains shown)
VH: QVQLVQSGAEVKKPGASVKVSCKVSGFSFPSSGVDWVRQAPGQGLEWLGVTRGEGSTHYNQKFQGRVTITKDTSKSTVYMELSSLRSEDTAVYYCASGEWDEGFVYWGQGTLVTVSS
VL: DIQLTQSPSFLSASVGDRVTITCKASQNVGTAVAWYQQKPGKAPKLLIYAASTLQSGVPSRFSGSGSGTEFTLTISSLQPEDFATYYCLQYSSYPLTFGGGTKVEIKR
notes: IgG
B2: IgG 1938 (antibody, name in Kabat numbering, V domains shown)
VH: B1 VH with R52L, E54H
VL: B1 VL with Y91K
notes: IgG
B3: IgG 1911 (antibody, name in Kabat numbering, V domains shown)
VH: B1 VH with R52L, E54H
VL: B1 VL with L89Q
notes: IgG
B4: IgG 1947 (antibody, name in Kabat numbering, V domains shown)
VH: B1 VH with R52L, E54H
VL: B1 VL
notes: IgG
B5: IgG 1940 (antibody, name in Kabat numbering, V domains shown)
VH: B1 VH with R52W, E54V, W100S, D101T
VL: B1 VL with Y91K
notes: IgG
B6: IgG 1941 (antibody, name in Kabat numbering, V domains shown)
VH: B1 VH with R52W, E54V, W100H
VL: B1 VL with Y91K
notes: IgG
B7: IgG 1952 (antibody, name in Kabat numbering, V domains shown)
VH: B1 VH with R52W, E54V, W100Q
VL: B1 VL
notes: IgG
B8: IgG 1916 (antibody, name in Kabat numbering, V domains shown)
VH: B1 VH with R52W, E54V, W100Q
VL: B1 VL with L89Q
notes: IgG
B9: IgG 1944 (antibody, name in Kabat numbering, V domains shown)
VH: B1 VH with R52K, E54Q
VL: B1 VL
notes: IgG
B10: IgG 1943 (antibody, name in Kabat numbering, V domains shown)
VH: B1 VH with R52W, E54V, W100Q
VL: B1 VL with Y91K
notes: IgG
B11: IgG 1912 (antibody, name in Kabat numbering, V domains shown)
VH: B1 VH with R52H, E54S
VL: B1 VL with L89Q
notes: IgG
B12: IgG 1955 (antibody, name in Kabat numbering, V domains shown)
VH: B1 VH with R52K, E54Q, W100R
VL: B1 VL with L89Q
notes: IgG
B13: IgG 1908 (antibody, name in Kabat numbering, V domains shown)
VH: B1 VH with R52K, E54Q
VL: B1 VL with L89Q
notes: IgG
B14: IgG 1910 (antibody, name in Kabat numbering, V domains shown)
VH: B1 VH with R52F, G53Q
VL: B1 VL with L89Q
notes: IgG
B15: IgG 1915 (antibody, name in Kabat numbering, V domains shown)
VH: B1 VH with R52W, E54V, W100R
VL: B1 VL with L89Q
notes: IgG
B16: IgG 1954 (antibody, name in Kabat numbering, V domains shown)
VH: B1 VH with R52K, E54Q, W100H
VL: B1 VL with L89Q
notes: IgG
B17: IgG 1913 (antibody, name in Kabat numbering, V domains shown)
VH: B1 VH with R52W, E54V, W100S, D101T
VL: B1 VL with L89Q
notes: IgG
B18: IgG 1957 (antibody, name in Kabat numbering, V domains shown)
VH: B1 VH with W100S, D101T
VL: B1 VL with L89Q
notes: IgG
B19: IgG 1958 (antibody, name in Kabat numbering, V domains shown)
VH: B1 VH with W100H
VL: B1 VL with L89Q
notes: IgG
B20: IgG 1909 (antibody, name in Kabat numbering, V domains shown)
VH: B1 VH
VL: B1 VL with L89Q
notes: IgG
B21: IgG 1956 (antibody, name in Kabat numbering, V domains shown)
VH: B1 VH with R52K, E54Q, W100Q
VL: B1 VL with L89Q
notes: IgG
B22: IgG 1951 (antibody, name in Kabat numbering, V domains shown)
VH: B1 VH with R52W, E54V, W100R
VL: B1 VL
notes: IgG
B23: IgG 1914 (antibody, name in Kabat numbering, V domains shown)
VH: B1 VH with R52W, E54V, W100H
VL: B1 VL with L89Q
notes: IgG
B24: IgG 1948 (antibody, name in Kabat numbering, V domains shown)
VH: B1 VH with R52H, E54S
VL: B1 VL
notes: IgG
B25: IgG 1946 (antibody, name in Kabat numbering, V domains shown)
VH: B1 VH with R52F, G53Q
VL: B1 VL
notes: IgG
B26: IgG 1959 (antibody, name in Kabat numbering, V domains shown)
VH: B1 VH with W100R
VL: B1 VL with L89Q
notes: IgG
B27: IgG 1936 (antibody, name in Kabat numbering, V domains shown)
VH: B1 VH
VL: B1 VL with Y91K
notes: IgG
B28: IgG 1953 (antibody, name in Kabat numbering, V domains shown)
VH: B1 VH with R52K, E54Q, W100S, D101T
VL: B1 VL with L89Q
notes: IgG
B29: IgG 1942 (antibody, name in Kabat numbering, V domains shown)
VH: B1 VH with R52W, E54V, W100R
VL: B1 VL with Y91K
notes: IgG
B30: IgG 1961 (antibody, name in Kabat numbering, V domains shown)
VH: B1 VH with R52F, G53Q, W100S, D101T
VL: B1 VL with L89Q
notes: IgG
B31: IgG 1937 (antibody, name in Kabat numbering, V domains shown)
VH: B1 VH with R52F, G53Q
VL: B1 VL with Y91K
notes: IgG
B32: IgG 1949 (antibody, name in Kabat numbering, V domains shown)
VH: B1 VH with R52W, E54V, W100S, D101T
VL: B1 VL
notes: IgG
B33: IgG 1950 (antibody, name in Kabat numbering, V domains shown)
VH: B1 VH with R52W, E54V, W100H
VL: B1 VL
notes: IgG

molecular target: T1, human TNFR2; assay: binding to human TNFR2 CHO cells

Row | binding result | Binder
1 | no binding | B1
2 | no binding | B2
3 | no binding | B3
4 | no binding | B4
5 | no binding | B5
6 | no binding | B6
7 | no binding | B7
8 | no binding | B8
9 | no binding | B9
10 | no binding | B10
11 | no binding | B11
12 | no binding | B12
13 | no binding | B13
14 | no binding | B14
15 | no binding | B15
16 | no binding | B16
17 | no binding | B17

Row | binding result | Binder
18 | no binding | B18
19 | no binding | B19
20 | no binding | B20
21 | no binding | B21
22 | no binding | B22
23 | no binding | B23
24 | no binding | B24
25 | no binding | B25
26 | no binding | B26
27 | no binding | B27
28 | no binding | B28
29 | no binding | B29
30 | no binding | B30
31 | no binding | B31
32 | no binding | B32
33 | no binding | B33
